Laboratory results as given in the supplement of paper PMC9233669.
Fewer inactive variants are shown than the library holds.

Legend:
biotinyl-Phe-oxazolone = assay: self-aminoacylation, catalytic enhancement (BFO) (fold over background); higher = more active; k-Seq, kA / k0A0; sequences stand for … in GGGAAUGGAUCCACAUCUACGAAUUC…UUCACUGCAGACUUGACGAAGCUG
How it was run: (§1)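 Each biotinyl-aminoacyl-oxazolone, at 2–1250 μM, was incubated with mutagenized RNA pools (0.43 μM) carrying a 21-nt variable region. The 50 μL reactions contained HEPES/NaCl/KCl/MgCl2/CaCl2 buffer with 5% acetonitrile at pH 6.9–7.0 and ran for 90 minutes at room temperature. After streptavidin capture, RNA was measured by qPCR in triplicate and by Illumina sequencing, and catalytic enhancement was calculated as median kA over the uncatalyzed rate from a pseudo-first-order fit of per-sequence fraction reacted.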

biotinyl-Ile-oxazolone = assay: self-aminoacylation, catalytic enhancement (BIO) (fold over background); higher = more active; k-Seq, kA / k0A0; sequences stand for … in GGGAAUGGAUCCACAUCUACGAAUUC…UUCACUGCAGACUUGACGAAGCUG
How it was run: as §1

biotinyl-Met-oxazolone = assay: self-aminoacylation, catalytic enhancement (BMO) (fold over background); higher = more active; k-Seq, kA / k0A0; sequences stand for … in GGGAAUGGAUCCACAUCUACGAAUUC…UUCACUGCAGACUUGACGAAGCUG
How it was run: as §1

biotinyl-Val-oxazolone = assay: self-aminoacylation, catalytic enhancement (BVO) (fold over background); higher = more active; k-Seq, kA / k0A0; sequences stand for … in GGGAAUGGAUCCACAUCUACGAAUUC…UUCACUGCAGACUUGACGAAGCUG
How it was run: as §1

biotinyl-Leu-oxazolone = assay: self-aminoacylation, catalytic enhancement (BLO) (fold over background); higher = more active; k-Seq, kA / k0A0; sequences stand for … in GGGAAUGGAUCCACAUCUACGAAUUC…UUCACUGCAGACUUGACGAAGCUG
How it was run: as §1

biotinyl-Trp-oxazolone = assay: self-aminoacylation, catalytic enhancement (BWO) (fold over background); higher = more active; k-Seq, kA / k0A0; sequences stand for … in GGGAAUGGAUCCACAUCUACGAAUUC…UUCACUGCAGACUUGACGAAGCUG
How it was run: as §1

Sequence | self-aminoacylation (biotinyl-Phe-oxazolone) | self-aminoacylation (biotinyl-Ile-oxazolone) | self-aminoacylation (biotinyl-Met-oxazolone) | self-aminoacylation (biotinyl-Val-oxazolone) | self-aminoacylation (biotinyl-Leu-oxazolone) | self-aminoacylation (biotinyl-Trp-oxazolone)
CUACUUCAAACAAGCGCUCUG [Fam1A.1 aminoacylation ribozyme variant] | 0.571 | 0.868 | 0.654 | 0.86 | 0.852 | 0.842
AUUACCCUGGGUAUCGAGUGA [Fam2.1 aminoacylation ribozyme variant] | 57.8 | 4.51 | 9.85 | 4.62 | 10.9 | 11.2
CUACUUAAAACAAUCGGUUUG [Fam1A.1 aminoacylation ribozyme variant] | 0.655 | 0.672 | 0.718 | 0.627 | 0.621 | 0.596
AAGUCUGCUAAUAGUCCCAAG [Fam3.1 aminoacylation ribozyme variant] | 7.42 | 0.928 | 1.38 | 0.893 | 1.15 | 2.43
AUUCACCUGGGACAUCGGGUG [Fam2.2 aminoacylation ribozyme variant] | 55.4 | 4.15 | 7.06 | 4.3 | 6.71 | 5.11
CCACACUACAAGCAAUCUGUC [Fam1B.1 aminoacylation ribozyme variant] | 0.747 | 0.496 | 0.271 | 0.566 | 0.49 | 0.353
CUAAUUGAAACAAUCGGUCUG [Fam1A.1 aminoacylation ribozyme variant] | 0.706 | 0.78 | 0.944 | 0.775 | 0.752 | 0.64
CCACACUUCAAGCAAUCCGAC [Fam1B.1 aminoacylation ribozyme variant] | 0.729 | 0.612 | 0.516 | 0.703 | 0.586 | 0.28
CCACACUUCAAGCAAUCGGGA [Fam1B.1 aminoacylation ribozyme variant] | 1.46 | 1.55 | 1.51 | 1.8 | 1.04 | 1.87
UUUACCCUUGUCAUCGAGUGA [Fam2.1 aminoacylation ribozyme variant] | 19.9 | 3.37 | 6.04 | 3.38 | 6.18 | 7.94
AUUACGCUGGUCAUCGAGUGG [Fam2.1 aminoacylation ribozyme variant] | 1.66 | 1.46 | 2.06 | 1.45 | 1.87 | 1.73
AUUCACCUAGGUCAUUGGGAG [Fam2.2 aminoacylation ribozyme variant] | 0.946 | 1.15 | 1.05 | 0.991 | 1.07 | 1.16
AACUUUGCUAAUAGUCGCAAU [Fam3.1 aminoacylation ribozyme variant] | 6.33 | 2.94 | 2.79 | 2.51 | 3.35 | 2.77
AUUAACCUAGGUCAUCGGGAG [Fam2.2 aminoacylation ribozyme variant] | 1.18 | 1.14 | 0.94 | 1.14 | 1.34 | 0.979
AUUGCCCUGGGCAUCGAGUGA [Fam2.1 aminoacylation ribozyme variant] | 44.5 | 2.96 | 6.92 | 3.27 | 8.04 | 7.29
AUUACCCUGGUCAUGGAGUGA [Fam2.1 aminoacylation ribozyme variant] | 19.7 | 3.07 | 4.69 | 3.02 | 4.95 | 5.8
AUUCCCCUGGUCAUCGGGUGA [Fam2.1 aminoacylation ribozyme variant] | 106 | 7.79 | 14.1 | 8.68 | 14.4 | 15.6
ACUCACCUAGGUCAUCGAGUG [Fam2.2 aminoacylation ribozyme variant] | 7.77 | 2.85 | 3.27 | 2.86 | 4.67 | 2.72
CUGCUUCAAACCAUCGGUCUG [Fam1A.1 aminoacylation ribozyme variant] | 0.756 | 0.708 | 0.677 | 0.887 | 0.631 | 0.706
AUUACGCUUGUCAUCGAGUGA [Fam2.1 aminoacylation ribozyme variant] | 4.09 | 2.6 | 3.16 | 2.36 | 3.93 | 4.03
UACUUUGCUAAUAGUCGCAAG [Fam3.1 aminoacylation ribozyme variant] | 2.71 | 1.75 | 1.66 | 1.33 | 1.86 | 1.46
AUUCACUUAGGUGAUCGGGUG [Fam2.2 aminoacylation ribozyme variant] | 13.3 | 2.46 | 2.59 | 2.5 | 3.43 | 3.03
AUUAUCCUGGUCAUUGAGUGA [Fam2.1 aminoacylation ribozyme variant] | 67.5 | 5.33 | 11.7 | 5.05 | 11.7 | 13.9
AUUAGGCUGGUCAUCGAGUGA [Fam2.1 aminoacylation ribozyme variant] | 8.97 | 2.53 | 3.01 | 2.48 | 2.85 | 4.23
AAGUUUUCUAAUAGUCGCAAA [Fam3.1 aminoacylation ribozyme variant] | 3.41 | 1.93 | 1.54 | 1.54 | 1.41 | 2.46
CUACGUCAAACAGUCGGUCUG [Fam1A.1 aminoacylation ribozyme variant] | 3.92 | 1.14 | 1.25 | 1.52 | 1.75 | 1.14

Sequence | self-aminoacylation (biotinyl-Phe-oxazolone) | self-aminoacylation (biotinyl-Ile-oxazolone) | self-aminoacylation (biotinyl-Met-oxazolone) | self-aminoacylation (biotinyl-Val-oxazolone) | self-aminoacylation (biotinyl-Leu-oxazolone) | self-aminoacylation (biotinyl-Trp-oxazolone)
GCACACUUCAAGCAAUCGGGC [Fam1B.1 aminoacylation ribozyme variant] | 13.7 | 3.11 | 2.58 | 3.09 | 3.02 | 4.23
AUUACCCUGGUCAUCCAGUGG [Fam2.1 aminoacylation ribozyme variant] | 1.42 | 1.22 | 1.84 | 1.3 | 1.68 | 1.28
AUUCACCUAGGUCAUGGGAUG [Fam2.2 aminoacylation ribozyme variant] | 0.397 | 0.596 | 0.66 | 0.657 | 0.611 | 0.315
AUCCACCUAGGUUAUCGGGUG [Fam2.2 aminoacylation ribozyme variant] | 32.1 | 3.44 | 4.13 | 4.45 | 4.84 | 5.62
AUUACCCUGGUGAACGAGUGA [Fam2.1 aminoacylation ribozyme variant] | 2.79 | 1.42 | 2.47 | 1.65 | 2.25 | 2.82
AUUCGCCUAGGCCAUCGGGUG [Fam2.2 aminoacylation ribozyme variant] | 35.5 | 3.15 | 4.46 | 4.16 | 5.27 | 4.7
UUACACCUAGGUCAUCGGGUG [Fam2.2 aminoacylation ribozyme variant] | 10.5 | 2.25 | 1.92 | 2.15 | 1.87 | 3
CCACAAGUCAAGCAAUCGGUC [Fam1B.1 aminoacylation ribozyme variant] | 1.15 | 1.64 | 1.67 | 1.54 | 1.49 | 1.32
AGGUUUGCUAAUAGUCCCAAG [Fam3.1 aminoacylation ribozyme variant] | 4.38 | 0.901 | 0.915 | 0.872 | 0.779 | 1.97
AUUCACCUAGGUCACCGAGUG [Fam2.2 aminoacylation ribozyme variant] | 14.4 | 2.11 | 3.57 | 1.99 | 4.03 | 3.47
CCACACUCCAAGCAAUCGGUC [Fam1B.1 aminoacylation ribozyme variant] | 2.6 | 0.984 | 0.789 | 1.08 | 0.855 | 1.59
UUUCACCUAGGACAUCGGGUG [Fam2.2 aminoacylation ribozyme variant] | 26.8 | 3 | 3.39 | 3.19 | 3.31 | 4.64
AUUACGCUGGUCAUCGAGUCA [Fam2.1 aminoacylation ribozyme variant] | 0.768 | 1.15 | 1.15 | 1.23 | 1 | 0.981
CGACUUCAAACAAGCGGUCUG [Fam1A.1 aminoacylation ribozyme variant] | 1.23 | 1.39 | 1.6 | 1.37 | 1.11 | 1.45
AAGUUUGCUAAAGGUCGCAAG [Fam3.1 aminoacylation ribozyme variant] | 1.14 | 0.687 | 0.931 | 0.625 | 0.716 | 0.835
CCACACUUCAAGCAAGCGGGC [Fam1B.1 aminoacylation ribozyme variant] | 6.38 | 1.61 | 2.41 | 2.29 | 1.59 | 2.67
AUACACCUCGGUCAUCGGGUG [Fam2.2 aminoacylation ribozyme variant] | 23.3 | 2.82 | 3.08 | 3.18 | 3.14 | 3.09
AAGUUAGCUAAUGGUCGCAAG [Fam3.1 aminoacylation ribozyme variant] | 1.77 | 1.22 | 1.3 | 1.08 | 1.17 | 1.55
AAGUGUGCUGAUAGUCGCAAG [Fam3.1 aminoacylation ribozyme variant] | 2.85 | 1.53 | 1.74 | 1.24 | 1.42 | 1.38
CCACACUUCAAGCCAUCGGUA [Fam1B.1 aminoacylation ribozyme variant] | 0.774 | 1.53 | 1.7 | 1.4 | 1.88 | 1.05
GUACUUCAAAGAAUCGGUCUG [Fam1A.1 aminoacylation ribozyme variant] | 3.28 | 1.26 | 1.07 | 1.24 | 1.46 | 4.9
AUUCACCUAGCACAUCGGGUG [Fam2.2 aminoacylation ribozyme variant] | 11.3 | 2.09 | 2.38 | 2.12 | 3.31 | 2.03
CUUCACCUAGGUCAUCGGGUA [Fam2.2 aminoacylation ribozyme variant] | 23.4 | 4.43 | 6.65 | 5.19 | 7.28 | 5.72
GUUACCCUGGACAUCGAGUGA [Fam2.1 aminoacylation ribozyme variant] | 48 | 4.6 | 8.05 | 4.58 | 9.14 | 9.84
AACUUUGCAAAUAGUCGCAAG [Fam3.1 aminoacylation ribozyme variant] | 4.66 | 2.3 | 1.96 | 1.94 | 2.8 | 1.99
